Results as given in patent US20030232009A1 (Amgen, published 2003).
Numbering of substitutions follows the chain as printed.

Tests used:
[1] = molecular target: T1, Human 20.2 peptide (human); assay: recombinant antibody on peptide
T1 construct: synthetic peptide from the RB exon
T1 peptide: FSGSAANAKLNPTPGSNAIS

[2] = molecular target: T2, Human 20.1 peptide (human); assay: recombinant antibody on peptide
T2 construct: synthetic peptide from the RB exon
T2 peptide: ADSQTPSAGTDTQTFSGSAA

[3] = molecular target: T3, Human 18 mer peptide (human); assay: recombinant antibody on peptide
T3 construct: synthetic peptide from the RB exon
T3 peptide: VSSVQTPHLPTHADSQTPC

[4] = molecular target: T4, Macaque 46 mer peptide (RB exon of macaque CD45RB) (macaque); assay: recombinant antibody on peptide
T4 construct: synthetic peptide
T4 peptide: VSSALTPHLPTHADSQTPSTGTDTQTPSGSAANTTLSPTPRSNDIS

[5] = molecular target: T5, Human 46 mer peptide (RB exon of human CD45) (human); assay: recombinant antibody on peptide
T5 construct: synthetic peptide; also called CD45RB 46 mer
T5 peptide: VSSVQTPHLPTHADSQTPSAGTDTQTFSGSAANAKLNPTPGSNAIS

[6] = molecular target: T6, chimeric CD45RB (full length human CD45RB with the macaque RB exon) transiently expressed in CHO cells (human; macaque, UniProt P08575-9 26-33; P08575-9 81-1192); assay: transiently transfected CHO cells
T6 construct: whole chimeric protein on CHO cells; also called Macaque CD45RB CHO
T6 sequence: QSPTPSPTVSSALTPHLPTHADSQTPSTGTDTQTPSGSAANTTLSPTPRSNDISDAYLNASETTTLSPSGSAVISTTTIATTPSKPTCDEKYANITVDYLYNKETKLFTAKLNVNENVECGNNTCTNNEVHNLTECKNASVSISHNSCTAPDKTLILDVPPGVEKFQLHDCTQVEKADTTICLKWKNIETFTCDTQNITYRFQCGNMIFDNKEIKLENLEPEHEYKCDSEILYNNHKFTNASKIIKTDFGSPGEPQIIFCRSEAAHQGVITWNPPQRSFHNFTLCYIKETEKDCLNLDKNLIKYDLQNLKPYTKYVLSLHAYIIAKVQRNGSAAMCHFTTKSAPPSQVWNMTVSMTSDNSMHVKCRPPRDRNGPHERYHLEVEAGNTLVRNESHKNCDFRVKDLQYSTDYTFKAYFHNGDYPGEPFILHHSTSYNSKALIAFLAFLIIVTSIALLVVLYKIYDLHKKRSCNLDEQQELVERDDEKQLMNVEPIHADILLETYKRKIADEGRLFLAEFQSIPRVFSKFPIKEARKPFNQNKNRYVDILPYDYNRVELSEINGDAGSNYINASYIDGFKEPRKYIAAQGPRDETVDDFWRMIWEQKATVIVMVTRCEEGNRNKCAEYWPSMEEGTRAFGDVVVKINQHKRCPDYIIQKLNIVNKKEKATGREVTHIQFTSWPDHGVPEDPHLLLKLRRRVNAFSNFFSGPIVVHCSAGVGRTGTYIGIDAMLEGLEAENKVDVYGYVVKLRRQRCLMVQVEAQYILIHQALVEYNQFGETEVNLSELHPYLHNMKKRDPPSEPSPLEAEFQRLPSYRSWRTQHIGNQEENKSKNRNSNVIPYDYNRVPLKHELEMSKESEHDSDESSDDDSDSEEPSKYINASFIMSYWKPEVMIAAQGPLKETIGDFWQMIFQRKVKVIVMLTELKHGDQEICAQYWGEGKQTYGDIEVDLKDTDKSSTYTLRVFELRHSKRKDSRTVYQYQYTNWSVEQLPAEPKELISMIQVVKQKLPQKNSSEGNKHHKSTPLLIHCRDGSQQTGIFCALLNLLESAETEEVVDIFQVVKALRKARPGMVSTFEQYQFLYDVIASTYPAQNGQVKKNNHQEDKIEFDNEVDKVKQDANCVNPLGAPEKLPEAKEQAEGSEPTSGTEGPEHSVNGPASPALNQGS

Measured: binding result

B1: AB-CD45RB-XG2-636 (antibody, human IgG2, V domains shown)
VH: QVHLVESGGGLVKPGGSLRLSCAASGFTFINYYMTWIRQAPGKGLEWVSYISLSGSTIYYADSVKGRFTISRDNAKNSLFLQMNSLRAEDTAVYYCARRAATVTTFDYWGQGTLVTVSS
VL: EIVMTQSPATLSVSPGERATLSCRASQSVRSNLAWSQQKPGQAPRLLIYGASTRATGIPARFSGSGSGTEFTLTISSLQSEDFAVYYCQQYNNWPLTFGGGTKVEIK
notes: recombinant human IgG2 kappa; also called sc636
not listed: [6]
no binding: all other assays above

B2: AB-CD45RB-XG2-475 (antibody, human IgG2, V domains shown)
VH: AVQLLESGGGLIQPGGSLRLSCAASGFTFSSYAMSWVRQAPGKGLEWVSAISGSGGSTFYADSVRGRFTISRDNSKNTLYLQMNSLRVEDTAVYYCAKEVMGPIFFDYWGQGTLVTVSS
VL: EIVLTQSPGTLSLSPGERATLSCRASQSIISSALAWYQQKPGQAPRLLIYGASSRATGIPDRFSGSGSGTDFTLTISRLEPEDFAVYHCQQYGSTPLTFGGGTKVEIK
notes: recombinant human IgG2 kappa; also called sc475
no binding: [1]

B3: AB-CD45RB-XG2-569 (antibody, human IgG2, V domains shown)
VH: QVQLQESGPGLVKPSETLSLTCTVSGGSISGYYWSWIRQPAGKGLEWIGRIHTTGKTAYNSSLKSRVIMSVDTSKNLFSLKLTSVTAADTAVYYCARDYDFLTGYFDYWGQGTLVTVSS
VL: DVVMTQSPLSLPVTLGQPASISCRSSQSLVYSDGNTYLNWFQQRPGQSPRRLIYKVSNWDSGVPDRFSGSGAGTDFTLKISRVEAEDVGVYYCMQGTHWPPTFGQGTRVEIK
notes: recombinant human IgG2 kappa; also called sc569
no binding: [1]

B4: AB-CD45RB-XG2-525 (antibody, human IgG2, V domains shown)
VH: QVQLVESGGGVVQPGRSLRVSCAASGFTFSNYGMHWVRQAPGKGLEWVAVIWYDGSKKFYADSVKGRFTISRDNSQNTLSLQMSSLRAEDTAVYYCARGGGDFDFWGQGTLVTVSS
VL: KIVMTQSPATLSVSPGERATLSCRASQSLSGSYLAWYQQRPGQAPRLLIYGASTRATGIPARFSGSGSGTEFTLTISSLQSEDFAVYYCQQYNKWPPLTFGGGTKVEIK
notes: recombinant human IgG2 kappa; also called sc525
not listed: [5]
no binding: all other assays above

B5: AB-CD45RB-XG2-439 (antibody, human IgG2, V domains shown)
VH: B4 VH with V20L, Q76K, T78M, L79Q, S80Y, S84D, F105Y, T110I
VL: B4 VL with K1E, S28N, S32K, R40K, R46S, L47R, A52T, I59V, F84S, K94N
notes: recombinant human IgG2 kappa; also called sc439
not listed: [5]
no binding: all other assays above

B6: AB-CD45RB-XG2-593 (antibody, human IgG2, V domains shown)
VH: B4 VH
VL: B4 VL with L29V, S32N, N93G
notes: recombinant human IgG2 kappa; also called sc593
not listed: [5]
no binding: all other assays above

B7: AB-CD45RB-XG2-026 (antibody, human IgG2, V domains shown)
VH: B4 VH with V20L, K57N, F59Y, Q76K, S80Y, S84N, F105Y
VL: B4 VL with K1E, A19V, S28T, L29I, R40K, S53F, K94N, K105R
notes: recombinant human IgG2 kappa; also called sc026; 1G10 (sc026)
not listed: [5]
no binding: all other assays above

B8: AB-CD45RB-XG2-606 (antibody, human IgG2, V domains shown)
VH: B4 VH with V5A, V20L, V50I, Q76N, S80Y, Q82H, M83V, S84N, A88V, F103I
VL: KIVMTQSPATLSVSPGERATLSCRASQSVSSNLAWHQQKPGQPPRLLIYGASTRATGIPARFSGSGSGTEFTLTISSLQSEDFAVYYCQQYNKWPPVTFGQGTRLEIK
notes: recombinant human IgG2 kappa; also called sc606
not listed: [5]
no binding: all other assays above

B9: AB-CD45RB-XG2-446 (antibody, human IgG2, V domains shown)
VH: B4 VH with R16K, V20L, S30R, Q76K, S80N, S84N, A97V, F105Y
VL: EIVMTQSPATLSVSLGERATLSCRASQNISGNYLAWYQQRPGQAPRRLIYSASSRATGIPDRFSGSGSGTEFTLTISSLQSEDFAVYYCQQYNNWPPLTFGGGTKVEMK
notes: recombinant human IgG2 kappa; also called sc446
not listed: [5]
no binding: all other assays above

B10: AB-CD45RB-XG2-487 (antibody, human IgG2, V domains shown)
VH: B4 VH with A23E
VL: B4 VL with L29V, S32N, N93G
notes: recombinant human IgG2 kappa; also called sc487
not listed: [5]
no binding: all other assays above

B11: AB-CD45RB-XG2-502 (antibody, human IgG2, V domains shown)
VH: B4 VH with G42D
VL: B4 VL with L29V, S32N, Q39R, N93G
notes: recombinant human IgG2 kappa; also called sc502
no binding: [1] | [3] | [6]

B12: AB-CD45RB-XG2-713 (antibody, human IgG2, V domains shown)
VH: B4 VH with V20L, S75F, Q76E, N77K, S80Y, S84N, F105Y
VL: B4 VL with K1E, R40K, G51S, K94N
notes: recombinant human IgG2 kappa; also called sc713
not listed: [5]
no binding: all other assays above

B13: AB-CD45RB-XG2-493 (antibody, human IgG2, V domains shown)
VH: B4 VH
VL: B4 VL with A9V, S26C, L29V, N93G
notes: recombinant human IgG2 kappa; also called sc493
not listed: [5]
no binding: all other assays above

B14: AB-CD45RB-XG2-275 (antibody, human IgG2, V domains shown)
VH: QVQLVESGGGVVQPGRSLRLSCAASGFTFSKFGMHWVRQAPDKGLEWVAVIWYDGTYKYYADSVKGRFTISRDNSKNTLYLQMNSLRAEDTAVYYCARGGGSFDYWGQGTLVTVSS
VL: DIVMTQTPLSLSVTPGQPASISCKSSQSLLHSDGKTFLYWYLQKPGQPPQLLIYEVSNRFSGVPDRFSGSGSGIDFTLKISRVEAEDVGVYYCMQSIQFPITFGQGTRLEIK
notes: recombinant human IgG2 kappa; also called sc275
no binding: [1]

B15: AB-CD45RB-XG2-324 (antibody, human IgG2, V domains shown)
VH: B14 VH with T56S, V93A
VL: B14 VL
notes: recombinant human IgG2 kappa; also called sc324; 39E11 (sc324)
no binding: [1]

B16: AB-CD45RB-XG2-416 (antibody, human IgG2, V domains shown)
VH: B14 VH with K31R, F32Y, D42G, T56S, Y57N, M83V
VL: B14 VL with S68G, I74T, K112E
notes: recombinant human IgG2 kappa; also called sc416
no binding: [1]

B17: AB-CD45RB-XG2-413 (antibody, human IgG2, V domains shown)
VH: B14 VH with K31S, F32Y, T56S
VL: B14 VL with S32R, I74T
notes: recombinant human IgG2 kappa; also called sc413
no binding: [1]
